Results from paper PMC6851107, “Characterization of the dynamics and the conformational entropy in the binding between TAZ1 and CTAD-HIF-1α” (Scientific Reports, 2019).

Molecular target: T1, transcriptional adapter zinc binding 1 (TAZ1) domain of CREB binding protein (CBP) (mouse (numbering; the same sequence in …, UniProt P45481 340-439)
T1 construct: Isotope-labelled (15N; or 2H, 13C, 15N; or 10% 13C) or unlabelled, depending on the NMR sample
Assay: NMR relaxation (15N backbone and 2H methyl side chain) of the complex; 1.3 mM labelled TAZ1 with 1.8 mM unlabelled CTAD-HIF-1α, and 1.3 mM labelled CTAD-HIF-1α with 1.8 mM unlabelled TAZ1; 15 mM HEPES pH 6.8, 50 mM NaCl, 3 mM TCEP, 0.01% NaN3, 7% D2O; 303 K
Conditions: both partners purified

T1 sequence (P45481 340-439): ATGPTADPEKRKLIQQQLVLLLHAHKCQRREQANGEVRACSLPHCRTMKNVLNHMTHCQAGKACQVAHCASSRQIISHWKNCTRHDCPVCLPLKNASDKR

B1: C-terminal transactivation domain of hypoxia inducible factor subunit 1α (CTAD-HIF-1α) (domain or fragment, UniProt Q16665 776-826, looked up)
chain: SDLACRLLGQSMDESGLPQLTSYDCEVNAPIQGSRNLLQGEELLRALDQVN
notes: Unlabelled or 2H, 13C, 15N-labelled, depending on the NMR sample
B1: binds.
